Test results published in article PMC3032553, “Structural Basis for c-di-GMP-Mediated Inside-Out Signaling Controlling Periplasmic Proteolysis” (PLoS Biology, 2011).
Residue numbers refer to the chain shown, from its start. Names may count otherwise.

Tests used:
LapD^EAL = biological target: T1, LapD^EAL (Pseudomonas fluorescens, UniProt Q3KK31, A602E); test: radioligand filter binding, one-site fit; details: read-out: Apparent K d
T1 construct: isolated degenerate EAL domain, residues 399-648; purified; dimer with c-di-GMP
T1 sequence (Q3KK31 399-648 A602E): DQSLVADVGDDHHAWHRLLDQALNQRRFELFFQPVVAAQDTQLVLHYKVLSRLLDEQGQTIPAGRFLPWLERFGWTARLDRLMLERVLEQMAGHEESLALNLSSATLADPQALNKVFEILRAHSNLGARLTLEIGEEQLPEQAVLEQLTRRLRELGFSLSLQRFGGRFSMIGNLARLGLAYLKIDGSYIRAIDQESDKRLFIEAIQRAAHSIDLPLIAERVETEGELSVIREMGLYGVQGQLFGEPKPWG
From the text: radioligand filter binding, one-site fit on LapD^EAL

LapD^dual [1] = biological target: T2, LapD^dual (Pseudomonas fluorescens, UniProt Q3KK31, S229D); test: radioligand filter binding, one-site fit; details: read-out: Apparent K d
T2 construct: cytoplasmic S helix-GGDEF-EAL dual domain module, residues 220-648, lacks HAMP; purified; apo monomer, dimerizes with c-di-GMP
T2 sequence (Q3KK31 220-648 S229D): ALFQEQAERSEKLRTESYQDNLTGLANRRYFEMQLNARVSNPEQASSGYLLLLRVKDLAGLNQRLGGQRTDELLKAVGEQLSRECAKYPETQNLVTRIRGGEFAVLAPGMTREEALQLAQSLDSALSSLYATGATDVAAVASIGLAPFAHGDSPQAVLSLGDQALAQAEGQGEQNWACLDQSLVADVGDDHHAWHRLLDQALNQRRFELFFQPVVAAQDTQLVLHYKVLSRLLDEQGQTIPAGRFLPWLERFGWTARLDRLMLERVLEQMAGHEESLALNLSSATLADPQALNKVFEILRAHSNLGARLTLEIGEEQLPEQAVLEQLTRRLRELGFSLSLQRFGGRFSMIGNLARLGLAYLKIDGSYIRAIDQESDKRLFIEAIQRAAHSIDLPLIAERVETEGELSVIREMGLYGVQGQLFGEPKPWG
From the text: (§1) radioligand filter binding, one-site fit on LapD^dual

LapD^dual [2] = biological target: T3, LapD^dual (Pseudomonas fluorescens, UniProt Q3KK31); test: radioligand filter binding, one-site fit; details: read-out: Apparent K d
T3 construct: cytoplasmic S helix-GGDEF-EAL dual domain module, residues 220-648, lacks HAMP; purified; apo monomer, dimerizes with c-di-GMP
T3 sequence (Q3KK31 220-648): T2 sequence (Q3KK31 220-648 S229D)
From the text: as §1

LapD^dual [3] = biological target: T4, LapD^dual (Pseudomonas fluorescens, UniProt Q3KK31, A602E/S229D); test: radioligand filter binding, one-site fit; details: read-out: Apparent K d
T4 construct: cytoplasmic S helix-GGDEF-EAL dual domain module, residues 220-648, lacks HAMP; purified; apo monomer, dimerizes with c-di-GMP
T4 sequence (Q3KK31 220-648 S229D/A602E): T2 sequence (Q3KK31 220-648 S229D)
From the text: as §1

LapD^dual [4] = biological target: T5, LapD^dual (Pseudomonas fluorescens, UniProt Q3KK31, E262A); test: radioligand filter binding, one-site fit; details: read-out: Apparent K d
T5 construct: cytoplasmic S helix-GGDEF-EAL dual domain module, residues 220-648, lacks HAMP; purified; apo monomer, dimerizes with c-di-GMP
T5 sequence (Q3KK31 220-648 E262A): T2 sequence (Q3KK31 220-648 S229D)
From the text: as §1

LapD^dual [5] = biological target: T6, LapD^dual (Pseudomonas fluorescens, UniProt Q3KK31, A602E); test: radioligand filter binding, one-site fit; details: read-out: Apparent K d
T6 construct: cytoplasmic S helix-GGDEF-EAL dual domain module, residues 220-648, lacks HAMP; purified; apo monomer, dimerizes with c-di-GMP
T6 sequence (Q3KK31 220-648 A602E): T2 sequence (Q3KK31 220-648 S229D)
From the text: as §1

[6] = biological target: the molecule itself; test: AUC; sedimentation equilibrium, no c-di-GMP; 1x, 2x, 4x dilutions of ~12 µM protein; 25 mM Tris pH 7.5, 150 mM NaCl; 20°C; 10,000, 14,000 and 20,000 rpm, global fit; monomer:dimer equilibrium
[7] = biological target: the molecule itself; test: AUC; sedimentation equilibrium with 20 µM c-di-GMP; 1x, 2x, 4x dilutions of ~12 µM protein; 25 mM Tris pH 7.5, 150 mM NaCl; 20°C; global fit with dinucleotide binding and dimerization of the c-di-GMP-bound form; monomer:dimer equilibrium
[8] = biological target: the molecule itself; test: SEC-MALS; protein incubated with 500 µM c-di-GMP for 30 min at room temperature before SEC, no c-di-GMP in the mobile phase; 20-320 µM injected protein; 25 mM Tris-HCl pH 8.4, 250 mM NaCl; 25°C
His6-tagged LapG = biological target: T7, His6-tagged LapG (P. fluorescens); test: pull-down; His6-LapG bound to NiNTA resin, untagged LapD output domain variants added, 1 h at 4°C; 25 mM Tris-HCl pH 8.4, 75 mM NaCl, 25 mM KCl, 40 mM imidazole; eluates on SDS-PAGE (Coomassie; SYPRO Ruby for quantification); details: both partners purified
T7 chain: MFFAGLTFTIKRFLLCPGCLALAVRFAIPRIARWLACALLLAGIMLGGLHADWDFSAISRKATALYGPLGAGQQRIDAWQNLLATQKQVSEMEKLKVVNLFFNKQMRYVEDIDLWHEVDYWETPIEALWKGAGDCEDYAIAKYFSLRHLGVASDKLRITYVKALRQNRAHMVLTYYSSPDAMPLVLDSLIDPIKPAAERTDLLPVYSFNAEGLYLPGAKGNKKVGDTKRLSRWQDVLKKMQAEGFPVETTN

[9] = biological target: the molecule itself; test: crystal structure; LapD^output, selenomethionine-derivatized, 1.8 Å, two molecules per asymmetric unit

Molecule: Nc1nc2c(ncn2[C@@H]2O[C@@H]3CO[P@](=O)(O)O[C@H]4[C@@H](O)[C@H](n5cnc6c(=O)[nH]c(N)nc65)O[C@@H]4CO[P@](=O)(O)O[C@H]3[C@H]2O)c(=O)[nH]1 [c-di-GMP]
- Kd (LapD^EAL): 36.3 ± 5.4 µM
- Kd (LapD^dual [1]): 15.1 ± 1.8 µM
- Kd (LapD^dual [2]): 27 ± 4.7 µM
- Kd (LapD^dual [3]): > 1000 µM
- Kd (LapD^dual [4]): 15.3 ± 1.7 µM
- Kd (LapD^dual [5]): > 1000 µM

B1: LapD^dual S229D (domain or fragment, P. fluorescens Pf0-1, UniProt Q3KK31 220-648, looked up)
chain: T2 sequence (Q3KK31 220-648 S229D) with S10D
notes: LapD, P. fluorescens Pf0-1, residues 220-648, mutation S229D in the S helix; also called S helix-EAL interface mutant; source: produced following standard molecular biology and liquid chromatography techniques, purified (protocols in Text S1)
- Kd [6]: 420 µM
- Kd [7]: 0.18 µM

B2: LapD^EAL, wild-type (EAL domain of LapD, residues 399-648) (domain or fragment, P. fluorescens Pf0-1, UniProt Q3KK31 399-648, looked up)
chain: T1 sequence (Q3KK31 399-648 A602E)
notes: LapD, P. fluorescens Pf0-1, residues 399-648 (degenerate EAL domain); also called isolated EAL domain; LapD^EAL•c-di-GMP; source: produced following standard molecular biology and liquid chromatography techniques, purified (protocols in Text S1)
- binding result [8]: binds

B3: LapD^output, wild-type (periplasmic output domain of LapD, residues 22-151) (domain or fragment, P. fluorescens Pf0-1, UniProt Q3KK31 22-151, looked up)
chain: SFMVSLESSRTQYVNQLRSHAQDAATALALSLTPNIDDPAMVELLVSSIFDSGYYSSIRVVDLKTDQTIVERNGIPAVTNVPDWFVKLIGLEPAGGDALVSRGWEQAARVEVVSHPMFALAKLWQSALGS
notes: LapD, P. fluorescens Pf0-1, residues 22-151 (periplasmic output domain); untagged in the pull-down; domain-swapped dimer in the crystal; The crystals were grown with selenomethionine-derivatized protein; the final model spans residues 23-150; also called periplasmic domain of LapD; source: produced following standard molecular biology and liquid chromatography techniques, purified (protocols in …)
- stoichiometry N (His6-tagged LapG): 2 LapG molecules per output domain dimer
- binding result [9]: binds

B4: LapD^dual E262A (domain or fragment, P. fluorescens Pf0-1, UniProt Q3KK31 220-648, looked up)
chain: T2 sequence (Q3KK31 220-648 S229D) with E43A
notes: LapD, P. fluorescens Pf0-1, residues 220-648, mutation E262A in the GGDEF domain; also called GGDEF-EAL interface mutant; source: produced following standard molecular biology and liquid chromatography techniques, purified (protocols in Text S1)
- binding result [8]: binds

B5: LapD^dual, wild-type (dual GGDEF-EAL domain module of LapD, residues 220-648) (domain or fragment, P. fluorescens Pf0-1, UniProt Q3KK31 220-648, looked up)
chain: T2 sequence (Q3KK31 220-648 S229D)
notes: LapD, P. fluorescens Pf0-1, residues 220-648 (S helix, degenerate GGDEF and EAL domains); also called apo-LapD^dual; intracellular module of LapD; source: produced following standard molecular biology and liquid chromatography techniques, purified (protocols in Text S1)
- Kd [6]: 400 µM
- Kd [7]: 0.67 µM
